Measured values as given in patent publication US20230203185A1 (ECO ANIMAL HEALTH, published 2023).

T1: porcine CD163 with deletion of SRCR domain 5 on porcine alveolar macrophages (porcine, UniProt Q2VL90 47-1115)
T1 construct: also called PAM CD163-d5; pPAMΔ5 domain
T1 sequence: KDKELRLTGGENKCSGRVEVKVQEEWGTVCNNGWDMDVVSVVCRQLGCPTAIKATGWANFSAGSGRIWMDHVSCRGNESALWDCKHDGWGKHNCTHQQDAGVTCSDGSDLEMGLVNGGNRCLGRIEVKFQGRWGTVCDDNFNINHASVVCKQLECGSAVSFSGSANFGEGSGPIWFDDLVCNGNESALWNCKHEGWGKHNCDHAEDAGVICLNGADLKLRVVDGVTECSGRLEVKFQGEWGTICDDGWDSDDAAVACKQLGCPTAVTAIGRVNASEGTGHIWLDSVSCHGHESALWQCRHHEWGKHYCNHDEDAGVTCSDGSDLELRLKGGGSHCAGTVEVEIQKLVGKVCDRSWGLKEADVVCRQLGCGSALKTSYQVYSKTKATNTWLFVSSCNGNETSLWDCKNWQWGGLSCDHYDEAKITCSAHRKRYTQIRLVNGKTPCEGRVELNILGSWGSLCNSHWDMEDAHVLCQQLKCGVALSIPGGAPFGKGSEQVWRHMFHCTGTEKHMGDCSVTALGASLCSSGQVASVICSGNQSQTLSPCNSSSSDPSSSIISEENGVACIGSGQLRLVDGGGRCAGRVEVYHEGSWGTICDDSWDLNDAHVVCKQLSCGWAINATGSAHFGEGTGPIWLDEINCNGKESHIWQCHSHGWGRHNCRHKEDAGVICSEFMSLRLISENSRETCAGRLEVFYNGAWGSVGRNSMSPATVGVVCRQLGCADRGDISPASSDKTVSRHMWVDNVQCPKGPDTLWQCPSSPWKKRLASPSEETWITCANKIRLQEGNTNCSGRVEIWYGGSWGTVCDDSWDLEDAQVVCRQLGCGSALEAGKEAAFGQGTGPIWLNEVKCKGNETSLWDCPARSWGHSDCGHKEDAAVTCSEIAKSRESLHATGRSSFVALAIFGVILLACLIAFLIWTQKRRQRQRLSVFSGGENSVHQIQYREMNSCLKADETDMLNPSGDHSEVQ

T2: pCD163-SRCR1-9-huFc (porcine, UniProt Q2VL90 47-1028, limits assumed)
T2 construct: also called pCD163:SRCR1-9-Fc; pCD163SRCR1-9-Fc; not shown: human Fc (huFc)
T2 sequence: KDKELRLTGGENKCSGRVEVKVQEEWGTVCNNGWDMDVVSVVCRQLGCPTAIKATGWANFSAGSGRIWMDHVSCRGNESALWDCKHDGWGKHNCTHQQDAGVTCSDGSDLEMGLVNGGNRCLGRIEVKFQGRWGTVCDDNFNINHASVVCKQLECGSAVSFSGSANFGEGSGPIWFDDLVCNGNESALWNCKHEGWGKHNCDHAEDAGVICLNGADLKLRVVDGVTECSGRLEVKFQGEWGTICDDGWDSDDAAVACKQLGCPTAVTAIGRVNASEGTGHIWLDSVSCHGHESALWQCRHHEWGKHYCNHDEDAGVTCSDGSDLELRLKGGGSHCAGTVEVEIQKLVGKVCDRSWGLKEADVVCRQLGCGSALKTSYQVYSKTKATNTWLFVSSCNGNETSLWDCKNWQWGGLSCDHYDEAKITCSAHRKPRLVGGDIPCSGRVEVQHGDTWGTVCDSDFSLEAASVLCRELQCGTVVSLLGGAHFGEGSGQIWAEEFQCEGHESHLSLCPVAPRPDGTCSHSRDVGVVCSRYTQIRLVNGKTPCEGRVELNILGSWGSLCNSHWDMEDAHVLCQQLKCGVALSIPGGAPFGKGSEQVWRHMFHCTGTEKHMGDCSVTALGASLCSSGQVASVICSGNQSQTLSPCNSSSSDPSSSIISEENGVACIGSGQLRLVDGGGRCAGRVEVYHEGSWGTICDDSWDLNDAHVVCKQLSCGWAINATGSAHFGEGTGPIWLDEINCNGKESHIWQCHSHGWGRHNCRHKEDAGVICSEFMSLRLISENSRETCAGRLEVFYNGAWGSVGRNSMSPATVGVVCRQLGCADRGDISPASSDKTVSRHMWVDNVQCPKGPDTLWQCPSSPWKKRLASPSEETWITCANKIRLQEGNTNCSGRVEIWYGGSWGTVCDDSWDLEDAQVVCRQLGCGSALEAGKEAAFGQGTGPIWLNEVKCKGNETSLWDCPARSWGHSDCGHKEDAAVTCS

B1: VHH 012 (2C07) (VHH)
VHH: QLQLVESGGGLVQAGGSLRLSCVASGRTFSRYAMGWFRQAPGKEREFVAAIAWSTGSTYYANSVKGRFAISGDNAKNTVYLQMNSLKPEDTAVYYCAAETRYCSGFGCLDPRTYGSWGQGTQVTVSS
notes: Llama single domain antibody; also called 41(#12); VHCDR3 41(#12); not shown: tags: c-myc tag in periplasmic extract (ELISA, FACS); FLAG and His tags in purified VHH (SPR, infection assays)
B2: VHH 023 (4E10) (VHH)
VHH: QVQLVESGGGLVQAGGSLRLSCVASSRTSSTYAMGWFRQGPGKERDFVAIISFGGTFYADSVKGRFTISRDNAKNTVYLQMNSLKPEDTAVYYCAAGRTLSKRADSYASWGQGTQVTVSS
notes: Llama single domain antibody; also called 70(#23); VHCDR3 70(#23); not shown: tags: c-myc tag in periplasmic extract (ELISA, FACS); FLAG and His tags in purified VHH (SPR, infection assays)
B3: VHH 015 (2G01) (VHH)
VHH: QVQLVESGGGLVQAGDTLRLSCTASGRTFSSYSMGWFRQAPGKEREFVAAITWNGYITNYADSVKGRFTISRDNTKNTVFLQMNSLKPEETAVYYCAATTFSTTSPISRTYNYWGPGTQVTVSS
notes: Llama single domain antibody; also called 150(#15); VHCDR3 150(#15); not shown: tags: c-myc tag in periplasmic extract (ELISA, FACS); FLAG and His tags in purified VHH (SPR, infection assays)
B4: VHH 017 (3D03) (VHH)
VHH: QLQLVESGGGLVQPGGSLRLSCAASGFTLDDYTIGWFRQAPGKEREGVSCINSITSNTYYADSVKGRFTISRDNAKNTVYLQMNSLTAEDTAIYYCAADSGLFSGSSCLKYRAMRFGSWGQGTQVTVSS
notes: Llama single domain antibody; also called 29(#17); VHCDR3 29(#17); not shown: tags: c-myc tag in periplasmic extract (ELISA, FACS); FLAG and His tags in purified VHH (SPR, infection assays)
B5: VHH 002 (1B04) (VHH)
VHH: QVQLVESGGGLVQAGGSLRLSCAASGLTFVTYSMGWFRQAPGKEREFVAAHRWSGSAYYAEHADSVEGRFTISRDYAKNMLYLQMNSLKHEDTAVYYCAAGVGSAAQYRYWGRGTQVTVSS
notes: Llama single domain antibody; also called 76(#2); VHCDR3 76(#2); not shown: tags: c-myc tag in periplasmic extract (ELISA, FACS); FLAG and His tags in purified VHH (SPR, infection assays)
B6: VHH 016 (2H11) (VHH)
VHH: EVQLVESGGGLVQAGGSLRLSCAASGRTFAPGSMGWFRQAPGKEREFVAAHRWSGSAYYADYADSVEGRFTISRDYAKNMVYLQMNSLKPGDTAVYYCAAGVGSAAQYTYWGRGTQVTVSS
notes: Llama single domain antibody; also called 77(#16); VHCDR3 77(#16); not shown: tags: c-myc tag in periplasmic extract (ELISA, FACS); FLAG and His tags in purified VHH (SPR, infection assays)
B7: VHH 008 (1H01) (VHH)
VHH: QVQLVESGGGLVQAGGSLRLSCAASGRTFGTYSMGWFRQAPGKEREFVAAHRWSGSAYYAEHADSVEGRFTISRDYAKNMLYLQMNSLKHEDTAVYYCAAGVGSEAQYRYWGRGTQVTVSS
notes: Llama single domain antibody; also called 78(#8); VHCDR3 78(#8); not shown: tags: c-myc tag in periplasmic extract (ELISA, FACS); FLAG and His tags in purified VHH (SPR, infection assays)
B8: VHH 011 (2B06) (VHH)
VHH: EVQLVESGGGLVQAGGSLRLSCAASGRTLSVYGTGWFRQAPGKEREFVAGISGTTGSTLYADSVKGRFTISRDNAKNTVYLQMNSLKSEDTALYYCAAGGRVYITTSSWAYWGQGTQVTVSS
notes: Llama single domain antibody; also called 57(#11); VHCDR3 57(#11); not shown: tags: c-myc tag in periplasmic extract (ELISA, FACS); FLAG and His tags in purified VHH (SPR, infection assays)
B9: VHH 018 (3E01) (VHH)
VHH: QVQLQESGGGLVQVGGSLRLSCVASGRAPSRYVMGWFRQAPGQEREFVAGIAWSGRAPYADSVKGRSTISRDNAKNTVYLQMNSLKPEDTGVYYCAGGEGAIRWTTLDAYDYWGQGTQVTVSS
notes: Llama single domain antibody; also called 49(#18); VHCDR3 49(#18); not shown: tags: c-myc tag in periplasmic extract (ELISA, FACS); FLAG and His tags in purified VHH (SPR, infection assays)
B10: VHH 019 (3E11) (VHH)
VHH: QVQLQESGGGLVQVGSSLRLSCVTSGRTPSRYVMGWFRQAPGQEREFVAAISWSGRAPYADSVKGRFTISRDNAKNTVYLQMNSLKPEDTGVYYCAGGEGAIKWTTLDAYDYWGQGTQVTVSS
notes: Llama single domain antibody; also called 47(#19); VHCDR3 47(#19); not shown: tags: c-myc tag in periplasmic extract (ELISA, FACS); FLAG and His tags in purified VHH (SPR, infection assays)
B11: VHH 020 (3H11) (VHH)
VHH: QVQLQESGGGLVQVGGSLRLSCVASGRTPSRYVMGWFRQAPGQEREFVAGIAWSGRAPYADSVKGRFVISRDSAKNTVYLQMNSLKSEDTGVYYCAGGEGAILWTTPGAYNYWGQGTQVTVSS
notes: Llama single domain antibody; also called 48(#20); VHCDR3 48(#20); not shown: tags: c-myc tag in periplasmic extract (ELISA, FACS); FLAG and His tags in purified VHH (SPR, infection assays)
B12: VHH 001 (1B02) (VHH)
VHH: EVQLVESGGGLVQAGGSLSLSCAASGGTLAMYAMSWFRQAPGKDRKFVAAINTSGRYSRYADSVKGRFTISRDNAKNTATLQMNSLEPEDTAVYYCAATDKGNWALAMSYDYWGQGTQVTVSS
notes: Llama single domain antibody; also called 144(#1); VHCDR3 144(#1); not shown: tags: c-myc tag in periplasmic extract (ELISA, FACS); FLAG and His tags in purified VHH (SPR, infection assays)

Key:
[1] = target: T1, porcine CD163 with deletion of SRCR …; test: flow cytometry on PAM with deletion of SRCR5
Protocol: Periplasmic Extract (P.E) from the selected clones were incubated with anti-c-myc antibody (Roche; Cat. nr. 11667203001), specific to the c-myc tag present in the soluble VHH, for 30 minutes with agitation at room temperature (RT). The mix (P.E + anti-c-myc antibody) was added to the pPAM or pPAMΔ5 domain (cells with deletion of SRCR domain 5) and incubated for 60 min at 4° C. with gentle shaking.
Cells were washed 3x with 150 µl/well of FACS Buffer and incubated with 50 µl/well of the secondary antibody GAM-APC for 30 min at 4° C. and protected from the light, with shaking.

[2] = target: T2, pCD163-SRCR1-9-huFc; test: SPR (Biacore 3000), antigen amine-coupled on CM5, VHH injected, pH 7.4
Protocol: To assess the affinity of selected purified clones to pCD163, pCD163-SRCR1-9-huFc or pCD163-SRCR4-7-huFc proteins were coated by amine coupling on a CM5 sensor ship (GE Healthcare). Surface plasmon resonance (SPR) (Biacore 3000, GE Healthcare) was used to determine the binding kinetics of selected single domain antibodies at pH7.4. Approximately 2000 RU of pCD163-SRCR1-9-huFc or pCD163-SRCR4-7-huFc, proteins at 20 or 30 µg/ml in Acetate buffer pH 5.0 or pH 5.5 were immobilized onto a CM5 chip using the standard amine coupling procedure.
1x HBS-EP pH 7.4, were utilized as a running buffer during binding kinetic measurements. Purified VHH were injected at 3-fold dilution (300 nM; 100 nM; 33 nM; 11 nM; 3.7 nM; 1.2 nM; 0.4 nM; 0 nM), for 120 s, at a flow rate of 30 µl/min. RU levels were restored to base levels after regeneration with 10 µl of 10 mM NaOH / 1 M NaCl and 10 µl of 10 mM Glycine pH 1.5 between samples. Fitting 1:1 binding with mass transfer was applied to the set sample curves using the simultaneous fitting option of the BIAevaluation software to calculate the kinetic constants of the antibody-antigen interactions including association rate (ka), dissociation rate (kd) and affinity (KD). Curves were removed from the fitting after visual examination of the residuals and considering the value of Chi2: a minimum of 4 curves were considered for the simultaneous fitting.

Row | Binder | binding result [1] | Kd [2] [nM] | koff [2] [s⁻¹] | kon [2] [M⁻¹ s⁻¹]
1 | B1 | no binding | 1.03 | 0.00617 | 5.97e+06
2 | B2 | no binding | 3.1 | 0.00927 | 2.99e+06
3 | B3 | no binding | 14.7 | 0.00583 | 396000
4 | B4 | no binding | 75.2 | 0.083 | 1.1e+06
5 | B5 | no binding | 20 | 0.0108 | 539000
6 | B6 | no binding | 44.3 | 0.00972 | 219000
7 | B7 | no binding | – | – | –
8 | B8 | no binding | 71.4 | 0.01 | 140000
9 | B9 | no binding | 16.5 | 0.0134 | 814000
10 | B10 | no binding | 8.77 | 0.0102 | 1.16e+06
11 | B11 | no binding | 9.15 | 0.00865 | 945000
12 | B12 | no binding | 7.08 | 0.0178 | 2.52e+06
